B1: Pistol ribozyme (parent)
chain: GGGUCGUUGUUCCAUAAUCGCGUGGAUAUGGCACGCAAGUUUCUACCGGGCACCGUAAAUGUCCGACUGGAGCCGUUCGGGCGGCUAUAAACAGACCUCAGGCCCGAAGCGUGGCGGCACCUGCCGCCGGUGGUAAAAAAGAUCGGAAGAGCACACGUCU

Variants of: B1
Test: aptazyme ON/OFF ratio, guanine; higher = stronger switching; co-transcriptional cleavage with and without guanine

| Variant | aptazyme ON/OFF ratio |
| --- | --- |
| U7A U8G G9C U10C U11A C13A | 1.16 |
| U7A U8G G9C U10C U11A C13G | 1.22 |
| U7A U8G G9A U10G U11G C12G C13U | 1.53 |
| U7A U8G G9A U10G U11G C12G C13G | 1.68 |
| U7A U8G G9A U10G U11G C12G C13A | 0.971 |
| U7A U8G G9C U10G U11C C13G | 1.08 |
| U7A U8G G9C U10G U11C C13U | 1.04 |
| U7A U8G G9C U10G U11C C13A | 1.1 |
| U7A U8G G9C U10G C12G | 1.15 |
| U7A U8G G9C U10G C12U | 1.44 |
| U7A U8G G9C U10G C12A | 1.27 |
| U7A U8G G9A U10G U11A C12G C13G | 1.11 |
| U7A U8G G9A U10G U11A C12G C13A | 1.15 |
| U7A U8G G9A U10G U11A C12G C13U | 1.22 |
| U7A U8G G9A U10G U11A C12U C13G | 1.35 |
| U7A U8G G9A U10G U11A C12U C13U | 1.27 |
| U7A U8G G9A U10G U11A C12U C13A | 1.7 |
| U7A U8G G9C U10C C12G C13U | 1.46 |
| U7A U8G G9C U10C C12G C13A | 1.23 |
| U7A U8G G9C U10C C12G C13G | 1.2 |
| U7A U8G G9C U10C U11C C12G C13A | 1.29 |
| U7A U8G G9C U10C U11C C12G C13U | 1.07 |
| U7A U8G G9C U10C U11C C12G C13G | 1.08 |
| U7A U8G G9C U10C U11C C12A C13G | 1.06 |

| Variant | aptazyme ON/OFF ratio |
| --- | --- |
| U7A U8G G9C U10C U11C C12A C13U | 1.04 |
| U7A U8G G9C U10C U11C C12A C13A | 1.01 |
| U7A U8G G9C U10G U11G C12G C13U | 1.14 |
| U7A U8G G9C U10G U11G C12G C13G | 1.24 |
| U7A U8G G9C U10G U11G C12G C13A | 1.32 |
| U7A U8G G9C U10C U11A C12U C13U | 1.2 |
| U7A U8G G9C U10C U11A C12U C13A | 1.13 |
| U7A U8G G9C U10C U11A C12U C13G | 1.18 |
| U7A U8G G9C U10C C12U | 1.24 |
| U7A U8G G9C U10C C12A | 1.15 |
| U7A U8G G9C U10C C12G | 1.4 |
| U7A U8G G9C U10A U11C C12G C13U | 1.26 |
| U7A U8G G9C U10A U11C C12G C13A | 1.27 |
| U7A U8G G9C U10A U11C C12G C13G | 1.17 |
| U7A U8G G9A U11G C12A C13U | 1.07 |
| U7A U8G G9A U11G C12A C13A | 1.16 |
| U7A U8G G9A U11G C12A C13G | 1.39 |
| U7A U8G G9C U11C C12A | 2.15 |
| U7A U8G G9A U10G U11C C12A C13G | 1.36 |
| U7A U8G G9A U10G U11C C12A C13U | 1.38 |
| U7A U8G G9A U10G U11C C12A C13A | 1.2 |
| U7A U8G G9C U10C U11G C12G | 1.16 |
| U7A U8G G9C U10C U11G C12U | 1.03 |
| U7A U8G G9C U10C U11G C12A | 1.06 |

| Variant | aptazyme ON/OFF ratio |
| --- | --- |
| U7A U8G G9C U10A | 1.24 |
| U7A U8G G9C U10G | 1.46 |
| U7A U8G G9C U10C | 2.58 |
| U7A U8G G9C U10G U11C C12U | 1.07 |
| U7A U8G G9C U10G U11C C12G | 1.3 |
| U7A U8G G9C U10G U11C C12A | 1.47 |
| U7A U8G G9A U11G C12U | 1.36 |
| U7A U8G G9A U11G C12G | 1.32 |
| U7A U8G G9A U11G C12A | 1.14 |
| U7A U8G G9C U10C U11G C12A C13G | 1.15 |
| U7A U8G G9C U10C U11G C12A C13A | 1.17 |
| U7A U8G G9C U10C U11G C12A C13U | 1.06 |
| U7A U8G G9C U10C U11A C12G C13G | 1.21 |
| U7A U8G G9C U10C U11A C12G C13U | 1.17 |
| U7A U8G G9C U10C U11A C12G C13A | 1.23 |
| U7A U8G G9C U10G C12U C13U | 1.38 |
| U7A U8G G9C U10G C12U C13G | 1.23 |
| U7A U8G G9C U10G C12U C13A | 1.48 |
| U7A U8G G9C U10C U11C C12U C13A | 1.05 |
| U7A U8G G9C U10C U11C C12U C13G | 1.06 |
| U7A U8G G9C U10C U11C C12U C13U | 1.01 |
| U7A U8G G9A U10G C13A | 1.18 |
| U7A U8G G9A U10G C13U | 1.31 |
| U7A U8G G9A U10G C13G | 1.09 |

| Variant | aptazyme ON/OFF ratio |
| --- | --- |
| U7A U8G G9C U10A U11C C12U C13A | 1.26 |
| U7A U8G G9C U10A U11C C12U C13U | 1.23 |
| U7A U8G G9C U10A U11C C12U C13G | 1.59 |
| U7A U8G G9C U10C U11G C12U C13U | 1.41 |
| U7A U8G G9C U10C U11G C12U C13G | 1.15 |
| U7A U8G G9C U10C U11G C12U C13A | 1.15 |
| U7A U8G G9C U10A C13U | 1.3 |
| U7A U8G G9C U10A C13A | 1.19 |
| U7A U8G G9C U10A C13G | 1.15 |
| U7A U8G G9C U10C C12A C13U | 1.12 |
| U7A U8G G9C U10C C12A C13A | 1.08 |
| U7A U8G G9C U10C C12A C13G | 1.05 |
| U7A U8G G9C U10A U11A C12A C13U | 1.38 |
| U7A U8G G9C U10A U11A C12A C13A | 1.5 |
| U7A U8G G9C U10A U11A C12A C13G | 1.35 |
| U7A U8G G9A U10G U11A C12U | 1.12 |
| U7A U8G G9A U10G U11A C12A | 1.28 |
| U7A U8G G9A U10G U11A C12G | 1.28 |
| U7A U8G G9C U10A C12G | 1.43 |
| U7A U8G G9C U10A C12A | 1.4 |
| U7A U8G G9C U10A C12U | 1.36 |
| U7A U8G G9C U10A C12G C13U | 1.28 |
| U7A U8G G9C U10A C12G C13G | 1.28 |
| U7A U8G G9C U10A C12G C13A | 1.25 |

| Variant | aptazyme ON/OFF ratio |
| --- | --- |
| U7A U8G G9C U10A U11G C12A C13A | 1.2 |
| U7A U8G G9C U10A U11G C12A C13U | 1.16 |
| U7A U8G G9C U10A U11G C12A C13G | 1.18 |
| U7A U8G G9C U10G U11A C12U | 1.2 |
| U7A U8G G9C U10G U11A C12G | 1.39 |
| U7A U8G G9C U10G U11A C12A | 1.42 |
| U7A U8G G9C U10G U11G C12A C13U | 1.22 |
| U7A U8G G9C U10G U11G C12A C13G | 1.16 |
| U7A U8G G9C U10G U11G C12A C13A | 1.18 |
| U7A U8G G9A U10G U11G C13G | 1.42 |
| U7A U8G G9A U10G U11G C13U | 1.22 |
| U7A U8G G9A U10G U11G C13A | 1.06 |
| U7A U8G G9A U10G C12G | 1.36 |
| U7A U8G G9A U10G C12U | 1.21 |
| U7A U8G G9C C13G | 1.11 |
| U7A U8G G9C C13A | 1.47 |
| U7A U8G G9C C13U | 1.42 |
| U7A U8G G9C U11A C12G | 1.34 |
| U7A U8G G9C U11A C12U | 1.53 |
| U7A U8G G9C U11A C12A | 1.73 |
| U7A U8G G9A U11A C13G | 1.21 |
| U7A U8G G9A U11A C13A | 1.24 |
| U7A U8G G9A U11A C13U | 1.55 |
| U7A U8G G9C U11A C12U C13U | 1.46 |

| Variant | aptazyme ON/OFF ratio |
| --- | --- |
| U7A U8G G9C U11A C12U C13A | 1.4 |
| U7A U8G G9C U11A C12U C13G | 1.37 |
| U7A U8G G9C U10G U11C | 1.04 |
| U7A U8G G9C U10G U11G | 1.25 |
| U7A U8G G9C U10G U11A | 1.07 |
| U7A U8G G9C U10G U11C C12A C13A | 1.38 |
| U7A U8G G9C U10G U11C C12A C13U | 1.29 |
| U7A U8G G9C U10G U11C C12A C13G | 1.22 |
| U7A U8G G9A U10G U11C C12U C13G | 1.09 |
| U7A U8G G9A U10G U11C C12U C13A | 1.32 |
| U7A U8G G9A U10G U11C C12U C13U | 1.14 |
| U7A U8G G9C U10G U11A C13A | 1.11 |
| U7A U8G G9C U10G U11A C13G | 1.25 |
| U7A U8G G9C U10G U11A C13U | 1.15 |
| U7A U8G G9A U11G C12U C13A | 1.12 |
| U7A U8G G9A U11G C12U C13G | 1.44 |
| U7A U8G G9A U11G C12U C13U | 1.5 |
| U7A U8G G9C U10A U11A C13G | 1.15 |
| U7A U8G G9C U10A U11A C13U | 1.26 |
| U7A U8G G9C U10A U11A C13A | 1.15 |
| U7A U8G G9A U11C | 1.33 |
| U7A U8G G9A U11G | 1.64 |
| U7A U8G G9A U11A | 1.7 |
| U7A U8G G9C C12G | 1.29 |

| Variant | aptazyme ON/OFF ratio |
| --- | --- |
| U7A U8G G9C C12A | 1.78 |
| U7A U8G G9C C12U | 1.88 |
| U7A U8G G9A U11A C12G C13G | 1.33 |
| U7A U8G G9A U11A C12G C13U | 1.25 |
| U7A U8G G9A U11A C12G C13A | 1.19 |
| U7A U8G G9C U10A U11C C13A | 1.04 |
| U7A U8G G9C U10A U11C C13U | 1.04 |
| U7A U8G G9C U10A U11C C13G | 1.04 |
| U7A U8G G9C U10C U11A C12A C13A | 1.17 |
| U7A U8G G9C U10C U11A C12A C13G | 1.1 |
| U7A U8G G9C U10C U11A C12A C13U | 1.18 |
| U7A U8G G9C U10A U11A C12G C13A | 1.15 |
| U7A U8G G9C U10A U11A C12G C13G | 1.36 |
| U7A U8G G9C U10A U11A C12G C13U | 1.38 |
| U7A U8G G9C U10A U11G C13U | 1.37 |
| U7A U8G G9C U10A U11G C13A | 1.29 |
| U7A U8G G9C U10A U11G C13G | 1.26 |
| U7A U8G G9A U10G U11C C12A | 1.45 |
| U7A U8G G9A U10G U11C C12U | 1.16 |
| U7A U8G G9A U10G U11C C12G | 1.38 |
| U7A U8G G9A U10G U11G C12U | 1.32 |
| U7A U8G G9A U10G U11G C12A | 1.46 |
| U7A U8G G9A U10G U11G C12G | 1.24 |
